{"source": "paper PMC7840601", "about": "(2020)", "target": "human C3b (CompTech) (human)", "sequence (chain, as listed by the source, chain 1 of 2)": "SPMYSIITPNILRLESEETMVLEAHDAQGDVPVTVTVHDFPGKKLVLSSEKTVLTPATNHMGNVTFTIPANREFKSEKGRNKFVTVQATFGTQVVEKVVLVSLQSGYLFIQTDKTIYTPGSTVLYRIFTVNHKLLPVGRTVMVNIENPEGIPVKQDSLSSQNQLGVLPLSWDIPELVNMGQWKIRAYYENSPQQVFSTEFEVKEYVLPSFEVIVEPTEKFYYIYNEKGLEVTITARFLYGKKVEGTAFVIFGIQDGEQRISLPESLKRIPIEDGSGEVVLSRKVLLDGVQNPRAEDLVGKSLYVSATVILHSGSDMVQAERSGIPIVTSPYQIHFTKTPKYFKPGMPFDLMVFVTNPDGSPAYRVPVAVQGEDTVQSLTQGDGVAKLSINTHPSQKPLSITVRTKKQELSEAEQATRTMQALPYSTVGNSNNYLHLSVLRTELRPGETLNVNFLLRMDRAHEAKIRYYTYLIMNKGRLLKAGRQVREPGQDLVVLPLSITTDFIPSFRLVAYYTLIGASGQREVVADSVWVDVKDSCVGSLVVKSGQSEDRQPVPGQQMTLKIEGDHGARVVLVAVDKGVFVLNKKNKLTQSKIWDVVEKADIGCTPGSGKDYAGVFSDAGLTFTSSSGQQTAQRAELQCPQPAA", "sequence (chain, as listed by the source, chain 2 of 2)": "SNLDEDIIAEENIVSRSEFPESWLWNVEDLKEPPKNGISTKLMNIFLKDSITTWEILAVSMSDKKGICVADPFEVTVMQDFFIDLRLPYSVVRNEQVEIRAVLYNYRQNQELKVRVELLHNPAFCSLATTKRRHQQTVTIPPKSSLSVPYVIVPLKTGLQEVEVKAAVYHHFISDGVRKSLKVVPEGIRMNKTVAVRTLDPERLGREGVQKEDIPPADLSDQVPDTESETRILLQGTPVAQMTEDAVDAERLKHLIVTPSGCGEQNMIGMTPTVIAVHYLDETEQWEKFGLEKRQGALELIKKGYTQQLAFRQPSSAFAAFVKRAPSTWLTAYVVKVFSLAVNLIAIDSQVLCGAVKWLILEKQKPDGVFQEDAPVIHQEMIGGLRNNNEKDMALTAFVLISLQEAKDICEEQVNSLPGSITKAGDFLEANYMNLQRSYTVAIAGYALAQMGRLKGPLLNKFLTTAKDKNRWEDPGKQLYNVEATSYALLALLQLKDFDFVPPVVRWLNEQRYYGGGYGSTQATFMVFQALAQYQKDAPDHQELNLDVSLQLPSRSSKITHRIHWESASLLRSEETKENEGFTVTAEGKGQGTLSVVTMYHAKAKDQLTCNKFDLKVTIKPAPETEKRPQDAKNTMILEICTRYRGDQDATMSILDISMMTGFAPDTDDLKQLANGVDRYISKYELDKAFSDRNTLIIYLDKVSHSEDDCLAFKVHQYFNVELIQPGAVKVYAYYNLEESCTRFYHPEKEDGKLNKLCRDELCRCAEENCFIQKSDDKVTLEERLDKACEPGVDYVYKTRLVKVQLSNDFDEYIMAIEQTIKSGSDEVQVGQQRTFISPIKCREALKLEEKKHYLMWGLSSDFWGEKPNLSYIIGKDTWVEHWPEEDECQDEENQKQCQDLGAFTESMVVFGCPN", "experiment": "SPR", "data": [{"binder": "FH1-4 WT (complement factor H CCPs 1-4, wild type) (domain or fragment) EDCNELPPRRNTEILTGSWSDQTYPEGTQAIYKCRPGYRSLGNVIMVCRKGEWVALNPLRKCQKRPCGHPGDTPFGTFTLTGGNVFEYGVKAVYTCNEGYQLLGEINYRECDTDGWTNDIPICEVVKCLPVTAPENGKIVSSAMEPDREYHFGQAVRFVCNSGYKIEGDEEMHCSDDGFWSKEKPKCVEISCKSPDVINGSPISQKIIYKENERFQYKCNMGYEYSERGDAVCTESGWRPLPSCE", "values": [{"measurement": "Kd", "result": 18.1, "unit": "µM"}]}]}
